Measurements: article PMC10896785

Biological target: heat shock protein 90 (Hsp90), endogenous mouse, P07901
Assay: in situ proximity-ligation assay (PLA)
Details: chain shown with the change; primary mouse embryonic fibroblasts (MEFs); anti-FKBP51 and anti-Hsp90 antibodies; parent: est. 240; read off a plot

B1: FK506-binding protein 51 kDa (FKBP51), wild-type mouse, Q64378 K352A; R356A (protein)
chain: MTTDEGTSNNGENPAATMTEQGEDITTKKDRGVLKIVKRVGTSDEAPMFGDKVYVHYKGMLSDGKKFDSSHDRKKPFAFSLGQGQVIKAWDIGVSTMKKGEICHLLCKPEYAYGSAGHLQKIPSNATLFFEIELLDFKGEDLFEDSGVIRRIKRKGEGYSNPNEGATVKVHLEGCCGGRTFDCRDVVFVVGEGEDHDIPIGIDKALVKMQREEQCILYLGPRYGFGEAGKPKFGIDPNAELMYEVTLKSFEKAKESWEMDTKEKLTQAAIVKEKGTVYFKGGKYTQAVIQYRKIVSWLEMEYGLSEKESKASESFLLAAFLNLAMCYLKLREYNKAVECCDKALGLDSANEAGLYARGEAQLLMNDFESAKGDFEKVLAVNPQNRAARLQISMCQRKAKEHNERDRRVYANMFKKFAERDAKEEASKAGSKKAVEGAAGKQHESQAMEEGKAKGHV
response (PLA dots/Nuclei): 73
